Literature values as cited in PMC1074345.

Molecular target: Angiotensin II AngII (Homo sapiens) (UniProt P01019)
Experiment: radioligand

Chain of UniProt P01019 (P01019 whole entry, looked up): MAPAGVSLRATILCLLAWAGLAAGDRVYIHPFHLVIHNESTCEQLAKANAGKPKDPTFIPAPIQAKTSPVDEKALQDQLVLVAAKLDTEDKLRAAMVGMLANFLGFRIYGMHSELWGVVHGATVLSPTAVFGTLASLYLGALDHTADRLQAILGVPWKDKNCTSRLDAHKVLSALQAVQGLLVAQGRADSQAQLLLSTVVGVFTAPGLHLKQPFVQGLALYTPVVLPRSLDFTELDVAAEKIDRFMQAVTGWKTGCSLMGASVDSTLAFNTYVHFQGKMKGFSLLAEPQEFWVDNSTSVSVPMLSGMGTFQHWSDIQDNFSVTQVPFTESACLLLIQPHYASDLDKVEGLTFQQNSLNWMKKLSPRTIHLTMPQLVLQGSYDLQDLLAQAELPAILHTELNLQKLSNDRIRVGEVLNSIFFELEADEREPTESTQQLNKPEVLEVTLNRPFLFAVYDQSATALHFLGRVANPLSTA

Substance | Kd
AT1 receptor (from UniProt P30556) | 0.36 nM
AT2 receptor (from UniProt P50052) | 0.17 nM
